From article PMC6322571, “CARK1 phosphorylates subfamily III members of ABA receptors” (Journal of Experimental Botany, 2018)

T1: His-CARK1-KD (CARK1 kinase domain, residues 50-353) (Arabidopsis thaliana, UniProt Q9LUT0 50-353)
T1 construct: Cytosolic ABA Receptor Kinase 1 (CARK1), Arabidopsis, kinase domain, residues 50-353; also called Cytosolic ABA Receptor Kinase 1 kinase domain; source: E. coli Rosetta (DE3), purified as previously described (Zhang et al., 2018)
T1 sequence (looked up): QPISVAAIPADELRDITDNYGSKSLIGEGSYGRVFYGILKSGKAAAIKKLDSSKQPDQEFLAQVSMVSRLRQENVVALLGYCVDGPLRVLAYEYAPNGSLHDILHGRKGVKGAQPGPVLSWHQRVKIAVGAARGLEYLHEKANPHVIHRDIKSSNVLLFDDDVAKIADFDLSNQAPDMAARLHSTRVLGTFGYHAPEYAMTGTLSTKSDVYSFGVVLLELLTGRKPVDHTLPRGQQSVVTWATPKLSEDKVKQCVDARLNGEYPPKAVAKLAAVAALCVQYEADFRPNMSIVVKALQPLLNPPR


The binders below were run against T1, His-CARK1-KD (CARK1 kinase domain, …) (assay: pull-down; GST-RCARs bound to glutathione Sepharose 4B resin; His-CARK1-KD or His-CARK1-KD^N204A co-incubated 1 h at room temperature; 50 ug of each protein; SDS-PAGE and anti-His blot). Conditions: both partners purified.

binding result	Binder
binds	GST-RCAR12 (receptor, Arabidopsis thaliana, UniProt Q8VZS8 1-221, looked up, ABA receptor RCAR12 (PYL1), Arabidopsis, subfamily III; also called PYL1; source: E. coli Rosetta (DE3), purified as GST-tag protein; not shown: GST, N-terminal, kept) MANSESSSSPVNEEENSQRISTLHHQTMPSDLTQDEFTQLSQSIAEFHTYQLGNGRCSSLLAQRIHAPPETVWSVVRRFDRPQIYKHFIKSCNVSEDFEMRVGCTRDVNVISGLPANTSRERLDLLDDDRRVTGFSITGGEHRLRNYKSVTTVHRFEKEEEEERIWTVVLESYVVDVPEGNSEEDTRLFADTVIRLNLQKLASITEAMNRNNNNNNSSQVR
binds	GST-RCAR14 (receptor, Arabidopsis thaliana, UniProt O80992 1-190, looked up, ABA receptor RCAR14, Arabidopsis, subfamily III; source: E. coli Rosetta (DE3), purified as GST-tag protein; not shown: GST, N-terminal, kept) MSSSPAVKGLTDEEQKTLEPVIKTYHQFEPDPTTCTSLITQRIHAPASVVWPLIRRFDNPERYKHFVKRCRLISGDGDVGSVREVTVISGLPASTSTERLEFVDDDHRVLSFRVVGGEHRLKNYKSVTSVNEFLNQDSGKVYTVVLESYTVDIPEGNTEEDTKMFVDTVVKLNLQKLGVAATSAPMHDDE
binds	GST-RCAR13 (receptor, Arabidopsis thaliana, UniProt Q9SSM7 1-209, looked up, ABA receptor RCAR13, Arabidopsis, subfamily III; source: E. coli Rosetta (DE3), purified as GST-tag protein; not shown: GST, N-terminal, kept) MNLAPIHDPSSSSTTTTSSSTPYGLTKDEFSTLDSIIRTHHTFPRSPNTCTSLIAHRVDAPAHAIWRFVRDFANPNKYKHFIKSCTIRVNGNGIKEIKVGTIREVSVVSGLPASTSVEILEVLDEEKRILSFRVLGGEHRLNNYRSVTSVNEFVVLEKDKKKRVYSVVLESYIVDIPQGNTEEDTRMFVDTVVKSNLQNLAVISTASPT
